Self-aminoacylation data for 21 sequences are collected here from the supplement of paper PMC9233669.

Fewer inactive variants are shown than the library holds.

The test system of data set [1] is biotinyl-Phe-oxazolone. Description: self-aminoacylation, catalytic enhancement (BFO) (fold over background); higher = more active; k-Seq, kA / k0A0; sequences stand for … in GGGAAUGGAUCCACAUCUACGAAUUC…UUCACUGCAGACUUGACGAAGCUG
The procedure, abridged: (§1)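 Each biotinyl-aminoacyl-oxazolone, at 2–1250 μM, was incubated with mutagenized RNA pools (0.43 μM) carrying a 21-nt variable region. The 50 μL reactions contained HEPES/NaCl/KCl/MgCl2/CaCl2 buffer with 5% acetonitrile at pH 6.9–7.0 and ran for 90 minutes at room temperature. After streptavidin capture, RNA was measured by qPCR in triplicate and by Illumina sequencing, and catalytic enhancement was calculated as median kA over the uncatalyzed rate from a pseudo-first-order fit of per-sequence fraction reacted.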

Data set [2] relates to biotinyl-Ile-oxazolone. Description: self-aminoacylation, catalytic enhancement (BIO) (fold over background); higher = more active; k-Seq, kA / k0A0; sequences stand for … in GGGAAUGGAUCCACAUCUACGAAUUC…UUCACUGCAGACUUGACGAAGCUG
The procedure, abridged:
as §1

The test system of data set [3] is biotinyl-Met-oxazolone. Nature of the data set: self-aminoacylation, catalytic enhancement (BMO) (fold over background); higher = more active; k-Seq, kA / k0A0; sequences stand for … in GGGAAUGGAUCCACAUCUACGAAUUC…UUCACUGCAGACUUGACGAAGCUG
The procedure, abridged:
as §1

For data set [4], the system named is biotinyl-Val-oxazolone. Description: self-aminoacylation, catalytic enhancement (BVO) (fold over background); higher = more active; k-Seq, kA / k0A0; sequences stand for … in GGGAAUGGAUCCACAUCUACGAAUUC…UUCACUGCAGACUUGACGAAGCUG
The procedure, abridged:
as §1

In data set [5] the test system is biotinyl-Leu-oxazolone. Description: self-aminoacylation, catalytic enhancement (BLO) (fold over background); higher = more active; k-Seq, kA / k0A0; sequences stand for … in GGGAAUGGAUCCACAUCUACGAAUUC…UUCACUGCAGACUUGACGAAGCUG
The gist of the method:
as §1

In data set [6] the test system is biotinyl-Trp-oxazolone. Nature of the data set: self-aminoacylation, catalytic enhancement (BWO) (fold over background); higher = more active; k-Seq, kA / k0A0; sequences stand for … in GGGAAUGGAUCCACAUCUACGAAUUC…UUCACUGCAGACUUGACGAAGCUG
The procedure, abridged:
as §1

As for “AAGUUAGCUAAUAGUCUCAAG [Fam3.1 aminoacylation ribozyme variant]”, the self-aminoacylation came out at 2.11 in data set [1]; 1.26 in data set [2]; 1.22 in data set [3]; 1.27 in data set [4]; 0.902 in data set [5]; 1.69 in data set [6].
As to “AUUACCCAGGUCAGCGAGUGA [Fam2.1 aminoacylation ribozyme variant]”, the self-aminoacylation in data set [1] was 34.2; in data set [2] it was 3.4; in data set [3], 5.2; in data set [4], 3.31; in data set [5], 5.59; in data set [6], 6.47.
In the case of “CUACUUCAAACAAUUGAUCUG [Fam1A.1 aminoacylation ribozyme variant]”, the self-aminoacylation in data set [1] turned out to be 0.576; in data set [2], 0.832; in data set [3], 0.765; in data set [4], 0.688; in data set [5], 0.642; in data set [6], 0.543.
In the case of “CCACACUCUAAGCAAUCGGUC [Fam1B.1 aminoacylation ribozyme variant]”, the self-aminoacylation in data set [1] is 1.04; in data set [2] it was 0.985; in data set [3], 0.69; in data set [4], 1.06; in data set [5], 0.683; in data set [6], 0.903.
As to “AUUCACCAAGGUCAUCGGGUA [Fam2.2 aminoacylation ribozyme variant]”, the self-aminoacylation in data set [1] worked out at 22.5; in data set [2] it was 3.77; in data set [3], 2.43; in data set [4], 3.04; in data set [5], 3.23; in data set [6], 4.89.
Turning to “AUUCCCCUAGGUCAACGGGUG [Fam2.2 aminoacylation ribozyme variant]”, the self-aminoacylation in data set [1] came to 84.2; in data set [2] it was 6.94; in data set [3], 11.5; in data set [4], 6.99; in data set [5], 15.4; in data set [6], 11.5.
With “AUUACCCUGGUCAUUGAGCGA [Fam2.1 aminoacylation ribozyme variant]”, the self-aminoacylation amounted to 4.43 in data set [1]; 1.45 in data set [2]; 1.16 in data set [3]; 1.41 in data set [4]; 1.44 in data set [5]; 1.66 in data set [6].
Take “GCACACUUCACGCAAUCGGUC [Fam1B.1 aminoacylation ribozyme variant]”: the self-aminoacylation in data set [1] came out at 10.1; in data set [2], 2.5; in data set [3], 2; in data set [4], 2.22; in data set [5], 1.93; in data set [6], 3.02.
For the sequence “AAGUUUGCUAAUAGACGCUAG [Fam3.1 aminoacylation ribozyme variant]”, the self-aminoacylation in data set [1] is 0.777; in data set [2] it was 0.547; in data set [3], 0.754; in data set [4], 0.654; in data set [5], 0.495; in data set [6], 0.501.
For “ACACACUUCAAGCACUCGGUC [Fam1B.1 aminoacylation ribozyme variant]”, the self-aminoacylation in data set [1] was found to be 1.49; in data set [2], 1.44; in data set [3], 1.42; in data set [4], 1.3; in data set [5] it was 1.62; in data set [6], 1.77.
“AAGUCUGCUAAUAGUCGCUAG [Fam3.1 aminoacylation ribozyme variant]”: the self-aminoacylation is 3.35 in data set [1]; 0.989 in data set [2]; 0.995 in data set [3]; 0.983 in data set [4]; 1.29 in data set [5]; 1.81 in data set [6].
As to “AUUACCCCGGUCAUCGAGUGU [Fam2.1 aminoacylation ribozyme variant]”, the self-aminoacylation in data set [1] amounted to 9.98; in data set [2] it was 1.56; in data set [3], 2.58; in data set [4], 1.87; in data set [5], 2.45; in data set [6], 3.57.
As to “AAGUUUGGUAAUAGUCGCAAC [Fam3.1 aminoacylation ribozyme variant]”, the self-aminoacylation was 2.86 in data set [1]; 1.48 in data set [2]; 1.19 in data set [3]; 1.47 in data set [4]; 1.16 in data set [5]; 1.84 in data set [6].
With “CUACCUCAAAUAAUCGGUCUG [Fam1A.1 aminoacylation ribozyme variant]”, the self-aminoacylation in data set [1] was 1.1; in data set [2], 1.05; in data set [3] it was 1.08; in data set [4], 0.863; in data set [5] it was 1.12; in data set [6], 1.23.
As to “CCACACAUCUAGCAAUCGGUC [Fam1B.1 aminoacylation ribozyme variant]”, the self-aminoacylation in data set [1] turned out to be 0.911; in data set [2] it was 0.894; in data set [3], 0.797; in data set [4] it was 0.93; in data set [5], 0.712; in data set [6] it was 0.615.
On to “AAGUUUGCUAAUUGUAGCAAG [Fam3.1 aminoacylation ribozyme variant]”, for which the self-aminoacylation worked out at 0.987 in data set [1]; 0.854 in data set [2]; 0.979 in data set [3]; 1.03 in data set [4]; 0.95 in data set [5]; 1.02 in data set [6].
Consider “CCACACUGCAAGAAAUCGGUC [Fam1B.1 aminoacylation ribozyme variant]”, for which the self-aminoacylation in data set [1] stood at 1.29; in data set [2] it was 1.51; in data set [3], 1.12; in data set [4] it was 1.72; in data set [5] it was 1.51; in data set [6], 1.51.
Regarding “CAACUUCAAACCAUCGGUCUG [Fam1A.1 aminoacylation ribozyme variant]”, the self-aminoacylation in data set [1] worked out at 1.41; in data set [2], 1.06; in data set [3], 0.913; in data set [4] it was 1.1; in data set [5], 1.07; in data set [6], 1.14.
For “CCACACUUCAAGGACUCGGUC [Fam1B.1 aminoacylation ribozyme variant]”, the self-aminoacylation in data set [1] came to 1.05; in data set [2], 1.02; in data set [3], 1.03; in data set [4], 1.24; in data set [5], 1.23; in data set [6] it was 1.13.
Consider “CCACACAGCAAGCAAUCGGUC [Fam1B.1 aminoacylation ribozyme variant]”, for which the self-aminoacylation was 1.35 in data set [1]; 0.864 in data set [2]; 0.699 in data set [3]; 1.11 in data set [4]; 0.787 in data set [5]; 0.608 in data set [6].
With “CCACACUUCAAGCAAUCAGUG [Fam1B.1 aminoacylation ribozyme variant]”, the self-aminoacylation in data set [1] turned out to be 6.8; in data set [2], 3; in data set [3], 3.58; in data set [4], 2.83; in data set [5] it was 4.36; in data set [6] it was 2.99.
